Several values for one entry are separate records, joined by “and”; a condition that tells them apart may be missing. Equal entries are not always repeated.
B1: NF2 (merlin) isoform 7, human, full length (507 aa, lacks exons 2-3 = isoform-1 residues 39-121; exon-16 C-terminus), P35240-4 (parent)
chain: MAGAIASRMSFSSLKRKQPKTFTVRIVTMDAEMEFNCEVKKQILDEKIYCPPEASVLLASYAVQAKYGDYDPSVHKRGFLAQEELLPKRVINLYQMTPEMWEERITAWYAEHRGRARDEAEMEYLKIAQDLEMYGVNYFAIRNKKGTELLLGVDALGLHIYDPENRLTPKISFPWNEIRNISYSDKEFTIKPLDKKIDVFKFNSSKLRVNKLILQLCIGNHDLFMRRRKADSLEVQQMKAQAREEKARKQMERQRLAREKQMREEAERTRDELERRLLQMKEEATMANEALMRSEETADLLAEKAQITEEEAKLLAQKAAEAEQEMQRIKATAIRTEEEKRLMEQKVLEAEVLALKMAEESERRAKEADQLKQDLQEAREAERRAKQKLLEIATKPTYPPMNPIPAPLPPDIPSFNLIGDSLSFDFKDTDMKRLSMEIEKEKVEYMEKSKHLQEQLNELKTEIEALKLKERETALDILHNENSDRGGSSKHNTIKKPQAQGRRPICI

Variants of: B1
Test: reverse yeast two-hybrid deep mutational scan (rY2H-seq): NF2 isoform 7 mutant library as bait mated with wild-type prey strains; selection on medium lacking adenine for non-interacting pairs; NextSeq paired-end sequencing; enrichment vs …
Settings: with EMILIN1 (elastin microfibril interfacer 1), Q9Y6C2; yeast diploids after mating (RBait_S3 x RPrey_S3), 30 °C, selection for reporter genes on NB agar; human tyrosine kinase ABL2 co-expressed as the active kinase …; HIGHER = WEAKER BINDING (the opposite of display enrichments): higher = stronger loss of interaction: reverse Y2H selects yeast in which bait and prey do NOT interact (growth without adenine), so a …; hits-only table; scale: rY2H score; numbering: uniprot, sequence starts at 1

Row | Variant | enrichment
1 | R341T | 3.59
2 | L150A | 2.56
3 | A331K | 4.31
4 | Q345L | 2.57
5 | I307Y | 2.93
6 | R258V | 2.52
7 | L300R | 3.24
8 | L300K | 8.53
9 | R328T | 2.61
10 | T106L | 4.33

Further lines, results first:

Row | enrichment | Variant
11 | 5.05 | P405L
12 | 5.25 | T429K
13 | 2.24 | A378T
14 | 2.11 | P407K
15 | 1.85 | E464L
16 | 2.72 | G419L
17 | 8.54 | L417I
18 | 4.18 | L375K

Same assay, conditions: with KDM1A (lysine-specific histone demethylase 1A; the table's label AOF2 is a gene synonym of KDM1A), O60341; yeast diploids after mating (RBait_S3 x RPrey_S3), 30 °C, selection for reporter genes on NB agar; human ABL2 co-expressed as the kinase-dead K35M mutant …; HIGHER = WEAKER BINDING (the opposite of display enrichments): higher = stronger loss of interaction: reverse Y2H selects yeast in which bait and prey do NOT interact (growth without adenine), so a …; hits-only table; scale: rY2H score; numbering: uniprot, sequence starts at 1

Row | Variant | enrichment
19 | R341T | 2.28
20 | A290V | 1.65
21 | E123L | 1.42
22 | E362L | 2.21
23 | A312L | 3.21
24 | D71K | 5.71
25 | A331K | 2.19
26 | E311L | 2.66
27 | R228G | 8.73
28 | L167A | 1.67
29 | L167E | 2.5
30 | Q345K | 2.79
31 | Q345L | 3.2
32 | K313L | 2.56
33 | M262I | 1.81
34 | R166E | 1.81
35 | R166G | 1.77
36 | A354L | 3.5
37 | M357D | 7.23

Row | Variant | enrichment
38 | S12L | 5.88
39 | S361A | 5
40 | S361P | 2
41 | L158I | 2.37
42 | A365L | 2.1
43 | R363G | 1.89
44 | I171D | 5.35
45 | L300P | 4.3
46 | R328P | 1.53
47 | E295K | 1.91
48 | H75S | 2.92
49 | M238I | 2.35
50 | A302T | 1.57
51 | L353A | 2.32
52 | Q64L | 2.29
53 | Q250L | 2.08
54 | Q250D | 1.46
55 | H112A | 2.37

Next, values leading:

Row | enrichment | Variant
56 | 6.05 | P405S
57 | 1.65 | Q498L
58 | 2.26 and 2.39 | A385E
59 | 7.88 and 2.96 | D374T
60 | 1.73 | L434R
61 | 1.71 | A378T
62 | 3.18 | R471A
63 | 1.45 and 2.01 | Q370A
64 | 19.6 | Q500L
65 | 2 | R379C
66 | 1.9 | A393L
67 | 2.05 | P407T
68 | 4.15 | P407K
69 | 1.52 | G486D
70 | 2.45 | L417E
71 | 4.11 | L417I

Same assay, conditions: with KDM1A (lysine-specific histone demethylase 1A; the table's label AOF2 is a gene synonym of KDM1A), O60341; yeast diploids after mating (RBait_S3 x RPrey_S3), 30 °C, selection for reporter genes on NB agar; human tyrosine kinase ABL2 co-expressed as the active kinase …; HIGHER = WEAKER BINDING (the opposite of display enrichments): higher = stronger loss of interaction: reverse Y2H selects yeast in which bait and prey do NOT interact (growth without adenine), so a …; hits-only table; scale: rY2H score; numbering: uniprot, sequence starts at 1

Row | Variant | enrichment
72 | R341A | 8.79
73 | I105C | 1.42
74 | V56L | 1.8
75 | M286A | 1.89
76 | E349P | 2.41
77 | R243K | 1.55
78 | A331K | 4.83
79 | H221Y | 2.24
80 | E311L | 5.65
81 | E311K | 1.67 and 1.4
82 | A54V | 3.45
83 | Q345K | 1.61
84 | Q345L | 2.39
85 | M262D | 5.37
86 | R166G | 1.84
87 | A354L | 3.78
88 | Q306H | 1.79
89 | E38K | 1.85
90 | S361A | 2.29 and 3.4
91 | N137R | 2.21

Row | Variant | enrichment
92 | L355P | 1.79
93 | N143M | 2.18
94 | A365K | 2
95 | L57A | 3.5
96 | R363L | 1.9
97 | M96V | 1.61
98 | M96I | 1.63
99 | R328L | 2.21
100 | H75S | 3.22
101 | Q64P | 6.87
102 | Q64K | 2.38
103 | A155C | 1.93
104 | K304A | 3.58
105 | K304P | 1.4
106 | E321L | 3.26
107 | Q250D | 1.65
108 | D198G | 2.28
109 | I127E | 11.8
110 | E148A | 1.62 and 1.74
111 | A333E | 2.04

Next, values leading:

Row | enrichment | Variant
112 | 4.78 | T397I
113 | 1.4 | T394A
114 | 11.2 | T429K
115 | 1.47 | P396S
116 | 1.73 | N402E
117 | 2.32 | E391R
118 | 1.5 | I418A
119 | 2.59 and 2.4 | A385E
120 | 1.37 | L434R
121 | 1.42 | Q500K
122 | 6.45 | I412H
123 | 2.04 | R379C
124 | 1.77 and 2.01 | P407L
125 | 2.54 | P407K
126 | 2.33 | P407A
127 | 4.86 | G419E
128 | 1.87 | D428N
129 | 2.43 | Y398K
130 | 3.12 | L417E

Same assay, conditions: with PIK3R3 (phosphatidylinositol 3-kinase regulatory subunit gamma), Q92569; yeast diploids after mating (RBait_S3 x RPrey_S3), 30 °C, selection for reporter genes on NB agar; human tyrosine kinase ABL2 co-expressed as the active kinase …; HIGHER = WEAKER BINDING (the opposite of display enrichments): higher = stronger loss of interaction: reverse Y2H selects yeast in which bait and prey do NOT interact (growth without adenine), so a …; hits-only table; scale: rY2H score; numbering: uniprot, sequence starts at 1

Row | Variant | enrichment
131 | A290V | 2.94
132 | A312K | 2
133 | V56L | 1.92
134 | R228G | 15.3
135 | L348A | 2.29
136 | M262D | 15.7
137 | R166E | 1.52
138 | R166G | 1.44
139 | S361P | 3.03
140 | R258V | 1.6
141 | N137R | 2.63
142 | L158I | 1.48 and 2.46
143 | A365K | 2.58
144 | I171D | 3.5 and 7.01
145 | M238I | 2.66
146 | A302T | 3.87
147 | Q64L | 6.71
148 | A155C | 1.8 and 1.98
149 | E321L | 3.49

More lines, now with the values ahead:

Row | enrichment | Variant
150 | 2.14 | T394A
151 | 1.42 | N402E
152 | 4.1 | A385E
153 | 1.83 | F415E
154 | 2.62 | P407T
155 | 2.65 | P407K
156 | 2.19 | L417E
157 | 5.19 | L375K

Same assay, conditions: with NF2 C-terminal domain (wild type; homomeric NF2-NF2 interaction), P35240; yeast diploids after mating (RBait_S3 x RPrey_S3), 30 °C, selection for reporter genes on NB agar; human ABL2 co-expressed as the kinase-dead K35M mutant …; HIGHER = WEAKER BINDING (the opposite of display enrichments): higher = stronger loss of interaction: reverse Y2H selects yeast in which bait and prey do NOT interact (growth without adenine), so a …; hits-only table; partner unresolved; scale: rY2H score; numbering: uniprot, sequence starts at 1

Row | Variant | enrichment
158 | A312K | 2.34
159 | I105C | 1.42 and 1.58
160 | F139E | 20.1
161 | L167E | 4.14 and 3.2
162 | L167K | 1.57
163 | V27L | 2.04
164 | R293K | 7.18
165 | L348A | 4.71
166 | Q345L | 1.49 and 2.6
167 | K313L | 2.4
168 | M262D | 6.41
169 | A266L | 3.08
170 | M357D | 2.94
171 | M357A | 1.97 and 1.82
172 | R258V | 1.38
173 | N137Q | 1.42

Row | Variant | enrichment
174 | E132K | 5.61
175 | E132L | 1.84
176 | L291E | 2.16
177 | N143M | 1.65 and 1.37
178 | A365L | 2.32
179 | L156K | 2.02
180 | R363L | 2.55
181 | E295K | 2.66
182 | H75S | 2.58
183 | M238A | 4.02
184 | A302K | 1.89
185 | Q64M | 5.81
186 | E321A | 1.62
187 | Y61K | 1.84
188 | Y61A | 6.2

The next lines start with the values.

Row | enrichment | Variant
189 | 7.16 | P405L
190 | 1.65 | T394K
191 | 3.98 | T394R
192 | 2.06 | A385E
193 | 2.37 | F415E
194 | 3.23 | D374T
195 | 1.98 | D374A
196 | 1.58 | L434R
197 | 2.15 | A378L
198 | 1.92 | Q373K
199 | 1.7 | A499G
200 | 2.32 | L417T
201 | 6.66 | L375K
202 | 3.98 | P399S
